Reference: PMC4402527
Positions count from the first letter of the chain named. Names may count otherwise. Each block holds one binder with its values, some of them ahead of it.

Molecular target: eIF2β of rabbit reticulocyte lysate (rabbit (endogenous in reticulocyte lysate)) (UniProt P41035)
Chain of UniProt P41035 (P41035 whole entry): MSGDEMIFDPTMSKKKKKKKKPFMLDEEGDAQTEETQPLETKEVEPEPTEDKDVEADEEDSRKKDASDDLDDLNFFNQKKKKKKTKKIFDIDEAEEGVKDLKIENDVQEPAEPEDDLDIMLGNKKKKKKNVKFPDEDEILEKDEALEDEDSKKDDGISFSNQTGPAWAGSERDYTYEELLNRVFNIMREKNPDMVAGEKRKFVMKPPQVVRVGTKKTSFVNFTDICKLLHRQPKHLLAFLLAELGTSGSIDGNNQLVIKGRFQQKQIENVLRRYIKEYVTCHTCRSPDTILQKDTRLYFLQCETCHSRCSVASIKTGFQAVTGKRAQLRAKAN

fold stimulation of m7GpppG-Bcl2 5′UTR-FL-poly(A)35 mRNA (25 ng) translation in nuclease treated RRL by 1.6 pmol protein (luciferase): 1.65 fold
B1: Recombinant mutant DAP5, E862K (natural protein)
chain: MESAIAEGGASRFSASSGGGGSRGAPQHYPKTAGNSEFLGKTPGQNAQKWIPARSTRRDDNSAANNSANEKERHDAIFRKVRGILNKLTPEKFDKLCLELLNVGVESKLILKGVILLIVDKALEEPKYSSLYAQLCLRLAEDAPNFDGPAAEGQPGQKQSTTFRRLLISKLQDEFENRTRNVDVYDKRENPLLPEEEEQRAIAKIKMLGNIKFIGELGKLDLIHESILHKCIKTLLEKKKRVQLKDMGEDLECLCQIMRTVGPRLDHERAKSLMDQYFARMCSLMLSKELPARIRFLLQDTVELREHHWVPRKAFLDNGPKTINQIRQDAVKDLGVFIPAPMAQGMRSDFFLEGPFMPPRMKMDRDPLGGLADMFGQMPGSGIGTGPGVIQDRFSPTMGRHRSNQLFNGHGGHIMPPTQSQFGEMGGKFMKSQGLSQLYHNQSQGLLSQLQGQSKDMPPRFSKKGQLNADEISLRPAQSFLMNKNQVPKLQPQITMIPPSAQPPRTQTPPLGQTPQLGLKTNPPLIQEKPAKTSKKPPPSKEELLKLTETVVTEYLNSGNANEAVNGVREMRAPKHFLPEMLSKVIILSLDRSDEDKEKASSLISLLKQEGIATSDNFMQAFLNVLDQCPKLEVDIPLVKSYLAQFAARAIISELVSISELAQPLESGTHFPLFLLCLQQLAKLQDREWLTELFQQSKVNMQKMLPEIDQNKDRMLEILEGKGLSFLFPLLKLEKELLKQIKLDPSPQTIYKWIKDNISPKLHVDKGFVNILMTSFLQYISSEVNPPSDETDSSSAPSKEQLEQEKQLLLSFKPVMQKFLHDHVDLQVSALYALQVHCYNSNFPKGMLLRFFVHFYDMEIIKEEAFLAWKEDITQEFPGKGKALFQVNQWLTWLETAEEEESEEEAD

fold stimulation of m7GpppG-Bcl2 5′UTR-FL-poly(A)35 mRNA (25 ng) translation in nuclease treated RRL by 1.6 pmol protein (luciferase): 4 fold
B2: Recombinant human DAP5 (1–907) (natural protein)
chain: B1 chain with K862E
